Test results reported in patent US9670515B2, “Methods for production of xylosylxylitol oligomers” (The Regents of the University of California, priority 2014, dated 2017).
“Also recorded” adds a separate entry of the source.

How the values were obtained:
CDT-2 = assay: Yeast cell-based xylodextrin uptake assay; set-up: species or system Neurospora crassa; settings: starting concentration 100 μM, 30 minutes
Method: (§1) S. cerevisiae was grown in an optimized minimum medium (oMM) lacking uracil into late log phase. The oMM contained 1.7 g/L YNB (Sigma, Y1251), 2-fold appropriate CSM dropout mixture, 10 g/L (NH4)2SO4, 1 g/L MgSO4.7H2O, 6 g/L KH2PO4, 100 mg/L adenine hemisulfate, 10 mg/L inositol, 100 mg/L glutamic acid, 20 mg/L lysine, 375 mg/L serine and 100 mM 4-morpholineethanesulfonic acid (MES), pH 6.0 (Lin et al., submitted). Cells were then harvested and washed three times with assay buffer (5 mM MES, 100 mM NaCl, pH 6.0) and resuspended to a final OD600 of 40. Substrate stocks were prepared in the same assay buffer at a concentration of 200 μM. Transport assays were initiated by mixing equal volumes of the cell suspension and the substrate stock. Reactions were incubated at 30° C. with continuous shaking for 30 minutes. Samples were centrifuged at 14,000 rpm at 4° C. for 5 minutes to remove yeast cells. 400 μL of each sample supernatant was transferred to an HPLC vial containing 100 μL of 0.5 M NaOH, and the concentration of the remaining substrate was measured by HPAEC as described below.
as §1, with “(Lin et al. 2014). Cells were” for “(Lin et al., submitted). Cells were”, “30 minutes. […] 400 μL” for “30 minutes. Samples were centrifuged at 14,000 rpm at 4° C. for 5 minutes to remove yeast cells. 400 μL”, “100 μL 0.5 M” for “100 μL of 0.5 M”

[1] = β-xylosidase assay of GH43-2 and GH43-7 with xylosyl-xylitol and xylobiose; assay type: biochemical, Neurospora crassa; settings: purified enzyme
Method: For the β-xylosidase assay of GH43-2 with xylodextrins, 0.5 μM of purified enzyme was incubated with 0.1% in-house prepared xylodextrin or 1 mM xylobiose (Megazyme) in 1×PBS at 30° C. Reactions were sampled at 30 min and quenched by adding 5 volumes of 0.1 mM NaOH. The products were analyzed by HPAEC as described below. For pH profiling, acetate buffer at pH 4.0, 4.5, 5.0, 5.5, 6.0, and phosphate buffer at 6.5, 7.0, 7.5, 8 were added at a concentration of 0.1 M. For the β-xylosidase assay of GH43-2 and GH43-7 with xylosyl-xylitol, 10 μM of purified enzyme was incubated with 4.5 mM xylosyl-xylitol and 0.5 mM xylobiose in 20 mM MES buffer, pH=7.0, and 1 mM CaCl2 at 30° C. Reactions were sampled at 3 hours and quenched by heating at 99° C. for 10 min. The products were analyzed by ion-exclusion HPLC as described below.
For the β-xylosidase assay of GH43-2 with xylodextrins, 0.5 μM of purified enzyme was incubated with 0.1% in-house prepared xylodextrin or 1 mM xylobiose (Megazyme) in 1×PBS at 30° C. Reactions were sampled at 30 min and quenched by adding 5 volumes of 0.1 M NaOH. The products were analyzed by HPAEC as described below. […] The products were analyzed by ion-exclusion HPLC as described below.

[2] = Activity of bacterial GH43-7 enzymes on xylobiose or xylosyl-xylitol; assay type: biochemical; settings: purified enzyme; for β-xylosidase activity: xylobiose (X2) substrate; for xylosyl-xylitol hydrolase activity: xylosyl-xylitol (xlt2) substrate
Method: Experiments were also conducted to further explore potential xylosyl-xylitol hydrolase activity of other β-xylosidases. […] To see if these proteins actually have xylosyl-xylitol hydrolase activity, purified B. subtilis GH43-7 and purified E. coli GH43-7 were incubated with xylobiose (X2) or xylosyl-xylitol (xlt2) and their activity on these substrates was analyzed. […] In summary, two GH43 enzymes from bacteria Bacillus subtilis (AAB41091.1) and Escherichia coli (WP_000406872.1) were tested and confirmed to both cleave xylosyl-xylitol.
S. cerevisiae strains transformed with pRS423_GH43-2, pRS423_GH43-7, or pRS313_NcXR were grown in oMM lacking histidine with 2% glucose until late log phase before harvesting by centrifugation. E. coli strains BL21DE3 transformed with pET302_BsGH43-7 or pET302_EcGH43-7 were grown in TB medium, induced with 0.2 mM IPTG at OD600 of 0.8, and harvested by centrifugation 12 hours after induction. Yeast or E. coli cell pellets were resuspended in a buffer containing 50 mM Tris-HCl, 100 mM NaCl, 0.5 mM DTT, pH 7.4 and protease inhibitor cocktail (Pierce). Cells were lysed with an Avestin homogenizer, and the clarified supernatant was loaded onto a HisTrap column (GE Healthcare). His-tagged enzymes were purified with an imidazole gradient, buffer-exchanged into 20 mM Tris-HCl, 100 mM NaCl, pH 7.4, and concentrated to 5 mg/mL.

[3] = Xylose reductase assay of NcXR with xylodextrin; assay type: biochemical, Neurospora crassa; settings: in vitro, xylodextrins with degrees of polymerization 2 to 4; products up to xlt3
Method: For the xylose reductase assays of S. stipitis XR and N. crassa XR, 1 μM of purified enzyme was incubated with 0.06% xylodextrin and 2 mM NADPH in 1×PBS at 30° C. Reactions were sampled at 30 min and quenched by heating at 99° C. for 10 min. The products were analyzed by LC-QToF as described below.
For the xylose reductase assays of NcXR, 1 μM of purified enzyme was incubated with 0.06% xylodextrin and 2 mM NADPH in 1×PBS at 30° C. Reactions were sampled at 30 min and quenched by heating at 99° C. for 10 min. The products were analyzed by LC-QToF as described below.

OC1OC[C@@H](O[C@@H]2OC[C@@H](O)[C@H](O)[C@H]2O)[C@H](O)[C@H]1O (stereo partly shown) [xylobiose]
import into S. cerevisiae strains expressing cdt-2 (CDT-2): able to import

OC1OC[C@@H](O[C@@H]2OC[C@@H](O[C@@H]3OC[C@@H](O[C@@H]4OC[C@@H](O)[C@H](O)[C@H]4O)[C@H](O)[C@H]3O)[C@H](O)[C@H]2O)[C@H](O)[C@H]1O (stereo partly shown) [xylotetraose]
import into S. cerevisiae strains expressing cdt-2 (CDT-2): able to import

OC1OC[C@@H](O[C@@H]2OC[C@@H](O[C@@H]3OC[C@@H](O)[C@H](O)[C@H]3O)[C@H](O)[C@H]2O)[C@H](O)[C@H]1O (stereo partly shown) [xylotriose]
import into S. cerevisiae strains expressing cdt-2 (CDT-2): able to import

B1: GH43-7: second putative intracellular β-xylosidase from N. crassa with xylosyl-xylitol hydrolase activity (protein)
chain: MPLVKNPILPGFNPDPSVLRVGQDYYIATSTFEWYPGVQIHHSTDLANWTLLTRPLNRKSQLDMRGDPDSCGVWAPCLSHDGDKFWLVYTDVKRKDGSFKDAHNFIVWADKIDGEWSDPVYVNSSGFDPSLFHDPDSGKKYFVNMLWDHRRRPLLFAGIAVQEWDAKTKKLVGERKNVYQGTELALAEAPHVYKRNGWYYLLIAEGGTGYEHACTLARSKDIWGPYKTHPEKHVLTSKDHPRAALQRAGHGDIVEIEDGRTYLVHLTGRPTTQLRRCVLGRETAIQECYWKDDWLYVKNGPVPSLWVDLLGERDESKYWEEKRYTFKDGLHKDFQWLRTPETERIFNVKDGKLTLIGREAIGSWFEQALVARRQEHFSYDAETVIDFSPTDERQFAGLTAYYCRYNFFYLTVTAHSDGQRELLIMSSEASWPIGNLNTPYVPYVQIPNEGKVKLALTIRGNQLQFYYAVLDSGDEELKKIGPVFDASIVSDECGGHQQHGSFTGAFVGVAASDLNGLAAEAKFDYLLYKPVKNQQDAYVRDNE
modifications: N. crassa
β-xylosidase activity ([1]; xylobiose substrate): weak β-xylosidase activity
hydrolysis of xylosyl-xylitol into xylose and xylitol ([1]; xylosyl-xylitol substrate): rapidly hydrolyzed

B2: E. coli GH43-7: GH43 enzyme from bacteria Escherichia coli, homologous to GH43-7 (protein, listed as Escherichia coli)
chain: MEITNPILTGFNPDPSLCRQGEDYYIATSTFEWFPGVRIYHSRDLKNWSLVSTPLDRVSMLDMKGNPDSGGIWAPCLSYADGKFWLLYTDVKIVDSPWKNGRNFLVTAPSIEGPWSEPIPMGNGGFDPSLFHDDDGRKYYIYRPWGPRHHSNPHNTIVLQAFDPQTGTLSPERKTLFTGTPLCYTEGAHLYRHAGWYYLMVAEGGTSYEHAVVVLRSKNIDGPYELHPDVTMMTSWHLPENPLQKSGHGSLLQTHTGEWYMAYLTSRPLRLPGVPLLASGGRGYCPLGRETGIARIEWRDGWPYVEGGKHAQLTVKGPQVAEQPAAVPGNWRDDFDASSLDPELQTLRIPFDDTLGSLTARPGFLRLYGNDSLNSTFTQSTVARRWQHFAFRAETRMEFSPVHFQQSAGLTCYYNSKNWSYCFVDYEEGQGRTIKVIQLDHNVPSWPLHEQPIPVPEHAESVWLRVDVDTLVYRYSYSFDGETWHTVPVTYEAWKLSDDYIGGRGFFTGAFVGLHCEDISGDGCYADFDYFTYEPV
β-xylosidase activity [2]: exhibited β-xylosidase activity
xylosyl-xylitol hydrolase activity [2]: exhibited xylosyl-xylitol hydrolase activity

B3: XYR-1: xylose reductase from Neurospora crassa (protein)
chain: MVPAIKLNSGFDMPQVGFGLWKVDGSIASDVVYNAIKAGYRLFDGACDYGNEVECGQGVARAIKEGIVKREELFIVSKLWNTFHDGDRVEPIVRKQLADWGLEYFDLYLIHFPVALEYVDPSVRYPPGWHFDGKSEIRPSKATIQETWTAMESLVEKGLSKSIGVSNFQAQLLYDLLRYAKVRPATLQIEHHPYLVQQNLLNLAKAEGIAVTAYSSFGPASFREFNMEHAQKLQPLLEDPTIKAIGDKYNKDPAQVLLRWATQRGLAIIPKSSREATMKSNLNSLDFDLSEEDIKTISGFDRGIRFNQPTNYFSAENLWIFG
modifications: N. crassa
production of xylosyl-xylitol oligomers from xylodextrin substrates [3]: able to directly produce xylosyl-xylitol oligomers; also recorded: generated xylosyl-xylitol products

B4: B. subtilis GH43-7: GH43 enzyme from bacteria Bacillus subtilis, homologous to GH43-7 (protein, listed as Bacillus subtilis)
chain: MKITNPVLKGFNPDPSICRAGEDYYIAVSTFEWFPGVQIHHSKDLVNWHLVAHPLQRVSQLDMKGNPNSGGVWAPCLSYSDGKFWLIYTDVKVVDGAWKDCHNYLVTCETINGDWSEPIKLNSSGFDASLFHDTDGKKYLLNMLWDHRIDRHSFGGIVIQEYSDKEQKLIGKPKVIFEGTDRKLTEAPHLYHIGNYYYLLTAEGGTRYEHAATIARSANIEGPYEVHPDNPILTSWHDPGNPLQKCGHASIVQTHTDEWYLAHLTGRPIHPDDDSIFQQRGYCPLGRETAIQKLYWKDEWPYVVGGKEGSLEVDAPSIPETIFEATYPEVDEFEDSTLNINFQTLRIPFTNELGSLTQAPNHLRLFGHESLTSTFTQAFVARRWQSLHFEAETAVEFYPENFQQAAGLVNYYNTENWTALQVTHDEELGRILELTICDNFSFSQPLNNKIVIPREVKYVYLRVNIEKDKYYYFYSFNKEDWHKIDIALESKKLSDDYIRGGGFFTGAFVGMQCQDTGGNHIPADFRYFRYKEK
β-xylosidase activity [2]: exhibited β-xylosidase activity
xylosyl-xylitol hydrolase activity [2]: exhibited xylosyl-xylitol hydrolase activity
